# Literature values, collected in PMC4339652.
# pKd: −log10 of the molar value. Values joined by “and” are separate entries in the source; they are usually repeats but may differ in a detail not shown here. Equal entries are not always repeated. Where two headings read alike, the source gives them in different places.
# Experiments:
# TolB (Escherichia coli) [1] = molecular target: TolB (Escherichia coli) (UniProt P0A855); assay: ITC
# [2] = molecular target: G3p N1 (Filamentous phage) (UniProt O80297)
# Sequence of G3p N1 (Filamentous phage) (O80297 18-79): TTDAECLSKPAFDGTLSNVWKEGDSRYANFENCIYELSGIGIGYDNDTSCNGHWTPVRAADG
# TolB (Escherichia coli) [3] = molecular target: TolB (Escherichia coli) (UniProt P0A855); assay: ITC; remark: listed apart in the source
# [4] = molecular target: Colicin N T domain (Escherichia coli) (UniProt P08083)
# Sequence of Colicin N T domain (Escherichia coli) (P08083 1-90): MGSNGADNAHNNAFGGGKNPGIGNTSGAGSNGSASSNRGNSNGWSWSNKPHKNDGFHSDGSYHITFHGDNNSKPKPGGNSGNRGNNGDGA
# [5] = molecular target: TolA TolAIII (Escherichia coli) (UniProt P19934); assay: SPR
# Sequence of TolA TolAIII (Escherichia coli) (P19934 311-421): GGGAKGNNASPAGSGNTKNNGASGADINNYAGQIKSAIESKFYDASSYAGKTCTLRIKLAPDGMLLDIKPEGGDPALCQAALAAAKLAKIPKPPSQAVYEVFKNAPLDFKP
# [6] = molecular target: TolA TolAII-III (Escherichia coli) (UniProt P19934); assay: SPR
# Sequence of TolA TolAII-III (Escherichia coli) (P19934 48-421): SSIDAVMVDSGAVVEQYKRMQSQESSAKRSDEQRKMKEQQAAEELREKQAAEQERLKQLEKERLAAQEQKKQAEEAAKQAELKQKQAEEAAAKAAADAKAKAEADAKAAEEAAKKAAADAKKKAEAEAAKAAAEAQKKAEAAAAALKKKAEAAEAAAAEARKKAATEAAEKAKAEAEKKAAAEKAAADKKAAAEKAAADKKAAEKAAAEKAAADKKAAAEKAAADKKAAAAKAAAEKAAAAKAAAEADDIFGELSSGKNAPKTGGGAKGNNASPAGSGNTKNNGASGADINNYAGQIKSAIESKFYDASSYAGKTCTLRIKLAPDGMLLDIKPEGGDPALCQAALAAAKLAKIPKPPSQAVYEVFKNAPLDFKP
# [7] = molecular target: Colicin N 40-90 (Escherichia coli) (UniProt P08083); assay: SPR
# Sequence of Colicin N 40-90 (Escherichia coli) (P08083 40-90): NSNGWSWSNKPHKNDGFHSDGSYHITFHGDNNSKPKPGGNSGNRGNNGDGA
# [8] = molecular target: TolA TolAIII (Escherichia coli) (UniProt P19934); assay: ITC
# [9] = molecular target: TolA TolAIII (Escherichia coli) (UniProt P19934); assay: stopped flow fluorescence
# Sequence of Colicin N 40-90 (P08083 40-90): as above
# Sequence of TolA TolAIII (P19934 311-421): as the sequence (P19934 311-421) above
# Sequence of Colicin N T domain (1-90) (P08083 1-90): as the sequence (P08083 1-90) above
# Sequence of TolB (Escherichia coli) (P0A855 22-430): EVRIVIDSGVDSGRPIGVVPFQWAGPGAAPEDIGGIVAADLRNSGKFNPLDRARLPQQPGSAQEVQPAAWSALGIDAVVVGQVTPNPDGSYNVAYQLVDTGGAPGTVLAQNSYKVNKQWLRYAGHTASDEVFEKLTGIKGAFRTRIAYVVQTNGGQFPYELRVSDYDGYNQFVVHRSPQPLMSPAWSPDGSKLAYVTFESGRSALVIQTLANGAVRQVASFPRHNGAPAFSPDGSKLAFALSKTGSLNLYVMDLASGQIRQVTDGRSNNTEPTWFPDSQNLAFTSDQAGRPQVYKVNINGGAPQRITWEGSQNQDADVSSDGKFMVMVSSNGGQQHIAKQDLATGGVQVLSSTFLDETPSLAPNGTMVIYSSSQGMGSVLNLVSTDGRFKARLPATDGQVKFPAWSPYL
# Sequence of TolA TolAII-III (P19934 48-421): as the sequence (P19934 48-421) above
# Sequence of G3p N1 domain (P69168 16-88): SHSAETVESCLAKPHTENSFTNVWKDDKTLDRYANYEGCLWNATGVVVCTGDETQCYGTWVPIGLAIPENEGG
# Sequence of TolA TolA (P19934 whole entry): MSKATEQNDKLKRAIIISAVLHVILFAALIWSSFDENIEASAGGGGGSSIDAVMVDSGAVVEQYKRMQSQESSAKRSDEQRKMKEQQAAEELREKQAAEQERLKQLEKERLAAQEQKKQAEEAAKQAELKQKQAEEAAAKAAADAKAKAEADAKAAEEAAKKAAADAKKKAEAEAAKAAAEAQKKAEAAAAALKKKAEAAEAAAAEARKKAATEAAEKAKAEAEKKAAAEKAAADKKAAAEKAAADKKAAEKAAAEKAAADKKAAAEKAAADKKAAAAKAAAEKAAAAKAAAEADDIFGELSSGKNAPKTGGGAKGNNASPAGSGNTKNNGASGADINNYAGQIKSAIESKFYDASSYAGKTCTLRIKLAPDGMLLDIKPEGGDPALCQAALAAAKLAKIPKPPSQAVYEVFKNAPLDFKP
substance,measurement,setting,value
TolA TolA (from UniProt P19934),pKd,TolB (Escherichia coli) [1],4.40
TolA TolAIII (from UniProt P19934),pKd,TolB (Escherichia coli) [1],4.89
same,pKd,[2],6.00
same,pKd,TolB (Escherichia coli) [3],4.40
same,pKd,[4],6.00
G3p N1 domain (from UniProt P69168),pKd,[5],6.00
Colicin N 40-90 (from UniProt P08083),pKd,[5],6.07 and 6.72
same,pKd,[6],6.03
TolA TolAII-III (from UniProt P19934),pKd,[7],6.72 and 6.03 and 6.07
Colicin N T domain (1-90) (from UniProt P08083),pKd,[8],6.00
same,pKd,[9],5.64
same,pKd,[5],5.90
